Reference: the DeepSol protein solubility set

Test: soluble on expression in E. coli; label from the status in PepcDB or PDB records

| Sequence | soluble on expression in E. coli |
| --- | --- |
| MSSLRRKWISDPAFKVFKKVLPPLSSTEKEAMEAGSVWWDAELFSGKPNFTTLHHYPAPTLTAEEQAFMDNELETLLDMLDDQKIVKEDRDLPPEVWEYLRKERFFSLIISKEYGGREFSALANSTIVSRIATRSISVAVSVMVPNSLGPGELLSHYGTQEQKDYWLPRLADGTDIPCFALTGPEAGSDAGGIPDQGVVCYGMYDGEEVLGVRVSWNKR | not soluble |
| MGSDKIHHHHHHMHRSKAALVLAGGGVAGAAYEIGALCAIDQVLEHLSVNEFDVYVGTSAGALISACLANNMSPRTLISVLESSLLGIDQLEPHHLYQLNITDLLYRAAHLPGALVQAIQRWVREGGEVSLLDLIETVAVGLPTGLYDSRSLEQYLRAALEQPGRSNRFADLDHELMIVATDLDTGERAIFGLPPLDNVPISLAVCASAAIPIFYRPVRIGDHDYIDGGLRGTASLDVAIERGAELIVCINPMVPFDNRRHPPGAAISDQGIQRIGNQVFRTFIHAGLHYHIKQVRRRHPEVDIILIEPSRQDRTMFAENTMRFHTRMTIARHGFESVARQLCEHYPYYRAMLARHGITISDERIRQDLRNLQMAGDNPHLVRAALVTGGSLHTAPAGLASTLAELDRLLSRLEVTR | not soluble |
| MGSDKIHHHHHHVLADAVAWTARTLPVRPSVPVLAGMLLDADDVDGHQRLTLSSFDYEVSAQVSVDVDIDEPGRILVSGKLLAEIVRNLPPQTVEVSTDGAKVVVSCGSAKFTILTLPVEDYPTLPAMPALTGSVLSDTFAAAVSQVAVAAGRDDTLPMLTGVRIEIEGSTVTLVSTDRYRLAVRELTWTPEDPNVSAVALVPAKTLADTAKSLTGGAQISIALSTAENGGEGMIGFEGGGRRTTTRLLEGEFPKYRKLLPESFNSVAEVQKNEFIEAVKRVSLVAERNTPLRLSFTSDRLVLEAGTGEEAQAVEELSATLEGDDIQIAFNSTFLLDGLNAIESDVAHLQFTTSTKPAIITGKPADDGTASDYRYLIMPVRISN | not soluble |
| MAHHHHHHMQPVKTAVGIRQGLRRCTQLPNKSFRILHVSPRQLTVSTGGDDILKEQRRLQQHGTCTRNNIFRHGVVCACNLLQGYTISIKTNSLIHHSLNFTGNTKTQASKDTHLSNKLYQTFRIIHLHPPIRINVHQWCIGIQNECMAVILHIHRPMFI | not soluble |
| MGSDKIHHHHHHMARVPRFALVERDSSNHCTWRAHDLEFVFEEPGARDKFLELVGRYKDRYGVEIRSYCLMGTHPHVTCTCRQEQVQFSRFWQVVNGQFARWYNKVRNRRGQVVMERMRTPRIQEGGAHQLTVMRYGDLNPVRAGLVKSPKDWKWSSYRHYAFGEPNPLITDAPEYLALGKTAQERRKAYQALFALPLSESLRTRRVELVSFPFVGDATWVMRRLEAAGLSPPD | not soluble |
| MGSDKIHHHHHHMEQHQVWAYQTKTHSVTLNSVDIPALAADDILVQNQAIGINPVDWKFIKANPINWSNGHVPGVDGAGVIVKVGAKVDSKMLGRRVAYHTSLKRHGSFAEFTVLNTDRVMTLPDNLSFERAAALPCPLLTAWQAFEKIPLTKQREVLIVGFGAVNNLLTQMLNNAGYVVDLVSASLSQALAAKRGVRHLYREPSQVTQKYFAIFDAVNSQNAAALVPSLKANGHIICIQDRIPAPIDPAFTRTISYHEIALGALHDFGDRQDWQILMQQGEALLTLIAQGKMEIAAPDIFRFEQMIEALDHSEQTKLKTVLTLNE | not soluble |
| MITCLIVDDELFAREELADSLSQEADIEIIGQCSNAIEALQTITKEKPQLVFLDIQMPRISGMELIAMLDPDTLPKIVFVTAFDEFAVKAFDNHAFDYLLKPIDADRLSKTLKRVRKDLTPQAVNLIAPRSLEHLPCYSGSKLKVIPIQDVEYVFSDLSGIHVACTKGKVHTQLTLKVLEEKTPLVHCHRQYLISPKAIAEIELLDTGAEVTTLLGDKVPVSRRYLKSLKQLFGFQ | not soluble |
| GSHMFKCMEALGMESGEIHSDQITASSQYSTNWSAERSRLNYPENGWTPGEDSYREWIQVDLGLLRFVTAVGTQGAISKETKKKYYVKTYKIDVSSNGEDWITIKEGNKPVLFQGNTNPTDVVVAVFPKPLITRFVRIKPATWETGISMRFEVYGCKITDYPCSGMLGMVSGLISDSQITSSNQGDRNWMPENIRLVTSRSGWALPPAPHSYINEWLQIDLGEEKIVRGIIIQGGKHRENKVFMRKFKIGYSNNGSDWKMIMDDSKRKAKSFEGNNNYDTPELRTFPALSTRFIRIYPERATHGGLGLRMELLGCEVE | soluble |
| MGSSHHHHHHGGTGENLYFQGGSGSSSSSSLPAAASLPATHATPPGALSSSVVSSSAPMCTHLPLPPPPPQPQEQQANKRSLRNDTHAGQMLREQQQMMEQLMSTGLVQAADLLEFGFSAAELRAAGLHLPPPHHRAGEQTKGGLEAAQAERMADAHGEDSRRRGVPRKRAWCDDAAQARPQKNERVAPSPVVSGAAATTLSAAETTREPQTVAKSVATPALLSEETRARSLHAAKLVEQTQSLRRHRGDQDCARWLCYDDTDDEEVSSTASTGTSSGEATAALASMARAAETLPKARCNTALAFSGLDVAVVREIAQRLQDESGHDASVESRRTREYVESRENGNTPYM | not soluble |
| MSLGFHEVRFPASLSFGSVGGPERHTDVVTLANGHEERNTPWAHSRRRYDAGVAMRGLDDIETLIAFFEARQAQLHGFRWKDWSDYKSGPALAEPAYHDQIIAIGDDVTASFPLIKAYRSGEQIYRRPITKPVAGTVRIGLSGDEQQEGVHYEVDTTTGIITFAHPPNEGLEITAGFEFDVPVRFDTDRIQTSVASFQAGDMPNVPVVEIRVEGHHHHHH | soluble |
| DKCKKVYENYPVSKCQLANQCNYDCKLDKHARSGECFYDEKRNLQCICDYCEY | soluble |
| TKDWNLDLTLNMSHNKNKVTKLVEEGRAQSAMDVVVQGSYADQVLAVGYPMGAFHGYEYAGIIQDQARIDELNAYAKSKGQSYYDGNSLKPGHLEIKDLNGDGIINYNDRVIIGNPDPDLFGGLTANLSYKQFSLFANFGYQIGGLKIYNKTLQNLPGQLTGLIDYGLNDRWSDTNKNAKYPALYIGDGVPRLTDHELFNASFFRLQEVRLTYNLPLNKVIKGQLFVSATNLFTLTSYPGTDPATVNSNSNYGGNYETSTYPGFRSFSAGLKINL | not soluble |
| MPCSFAPGFLALTVAIHPGTTAQPSQQSPRAFPFFRPVLAQLMKHRVAQESTRRWLDRIIQIIKYAYCQKLRRHFCQATLWKMIQLIVNGQSQLVPSPDSGTDSGTTNDARLNIRQLLEHMGLQGKRIAVERNGEIVPRSQFDQPMLASGDKLEIVVAVGGGLEHHHHHH | not soluble |
| MFNTTPINIDKWLKENEGLLKPPVNNYCLHKGGFTVMIVGGPNERTGYHINPTPEWFYQKKGSMLLKVVDETDAEPKFIDIIINEGDSYLLPGNVPHSPVRFADTVGIVVEQDRPGGENDKIRWYCSHCRQVVHESELQMLDLGTQVKEAILDFENDVEKRTCFHCKTLNYARPQSN | soluble |
| MAHHHHHHMRTSRGFCMSMWDSPAFEHNPLSRYWKRMMKQNGETLTAQSIPRHIHGYIEASCPRTEGLVRWFPYKKEITVDGRYVPTISDAIYSYYFPRELNDDERVKYVAIKTGRSELEVAEEVFLMRKMKLFVAQLLRNKLRSRPLRMPEGVDYSGIERRYTLGISRVAQAMGMSMYGTQSYDPVIVYSPYCDIGDCIDCICTKQLRTATQYLLCEVAVHRGIARSRMTDVTSEPKEPLSHVEPCLFEFIKLRLAILALVAKQEHYVVDHLFDGGHRYGGCLIHLFPSPLDPEIIDHEVNHIELDLDLAQKWMKHYYDHYVAPRRSG | not soluble |
| MSLLPVNNPPLSTGNVSFYRTTSIDNVHNNYLSEWVEWTKNSISGENRETAFTRLQLCLENSETSLDLSCLGLRSLPRLPDNLDEINVSNNQLSMLPELPRALKELNASSNQLSALPELPVSLEYINVSDNHLFALPELPASLEYINVSDNHLSVLPRLPMSLELLDAARNALEVIPDFPERDDHIIRIFWLNQNRITAIPESILGLSSDSVVNLRENQLSPRIMQTLLQQTAQPDYHGPRIYFSMSDGQQNTLHRPLADAVTAWFPENKQSDVSQIWHAFEHEEHANTFSAFLDRLSDTVSARNTSGFREQVAAWLEKLSASAELRQQSFAVAADATESCEDRVALTWNNLRKTLLVHQASEGLFDNDTGALLSLGREMFRLEILEDIARDKVRTLHFVDEIEVYLAFQTMLAEKLQLSTAVKEMRFYGVSGVTANDLRTAEAMVRSREENEFTDWFSLWGPWHAVLKRTEADRWAQAEEQKYEMLENEYPQRVADRLKASGLSGDADAEREAGAQVMRETEQQIYRQLTDEVLALRLSENGSQLHHSEGHHHHHH | soluble |
